According to article PMC5360572 (EBioMedicine, 2017):

Key:
Assay in all cases: SPR; BIAcore 3000, 25 °C; PD-L1-Ig or PD-L2-Ig immobilized on CM5 chip by amine coupling; soluble monomeric PD-1 or mutants (0.01–100 μM) injected at 20 μl/min; equilibrium Kd, 1:1 Langmuir model
Conditions in all cases: both partners purified
[1] = target: T1, human PD-L1 Ig fusion protein (human, UniProt Q9NZQ7 19-238)
T1 construct: characterized by SEC prior to use; detected on cells with anti-human IgG Fcγ-specific F(ab')2; also called huPD-L1; B7-H1; source: bought: R&D Systems

[2] = target: T2, human PD-L2 Ig fusion protein (human, UniProt Q9BQ51 20-220)
T2 construct: characterized by SEC prior to use; also called huPD-L2; B7-DC; source: bought: R&D Systems
T2 sequence (looked up): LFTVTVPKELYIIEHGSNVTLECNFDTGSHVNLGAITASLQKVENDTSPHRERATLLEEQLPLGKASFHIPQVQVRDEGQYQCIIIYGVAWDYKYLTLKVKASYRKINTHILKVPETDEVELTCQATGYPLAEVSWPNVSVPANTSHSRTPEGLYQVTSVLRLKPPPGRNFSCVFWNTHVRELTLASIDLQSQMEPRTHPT

[3] = target: T3, mouse PD-L1 Ig fusion protein (mouse, UniProt Q9EP73 19-239)
T3 construct: mouse PD-L1 part of a bought Ig fusion protein; also called mPD-L1; murine PD-L1-Ig; source: bought: R&D Systems

[4] = target: T4, mouse PD-L2 Ig fusion protein (mouse, UniProt Q9WUL5 20-221)
T4 construct: mouse PD-L2 part of a bought Ig fusion protein; also called mPD-L2; murine PD-L2-Ig; source: bought: R&D Systems
T4 sequence (looked up): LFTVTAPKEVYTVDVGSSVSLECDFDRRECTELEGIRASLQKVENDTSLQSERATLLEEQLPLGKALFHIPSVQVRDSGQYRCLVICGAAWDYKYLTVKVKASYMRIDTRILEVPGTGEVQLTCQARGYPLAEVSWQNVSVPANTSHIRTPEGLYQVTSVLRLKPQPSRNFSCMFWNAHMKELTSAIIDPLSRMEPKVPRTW

T3 sequence (Q9EP73 19-239): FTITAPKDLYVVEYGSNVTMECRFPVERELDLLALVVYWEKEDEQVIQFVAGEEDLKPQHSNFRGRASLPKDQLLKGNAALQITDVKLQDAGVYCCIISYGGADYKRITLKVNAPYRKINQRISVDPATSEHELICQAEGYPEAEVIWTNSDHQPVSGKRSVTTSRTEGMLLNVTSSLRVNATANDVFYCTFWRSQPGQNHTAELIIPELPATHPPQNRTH
T1 sequence (Q9NZQ7 19-238): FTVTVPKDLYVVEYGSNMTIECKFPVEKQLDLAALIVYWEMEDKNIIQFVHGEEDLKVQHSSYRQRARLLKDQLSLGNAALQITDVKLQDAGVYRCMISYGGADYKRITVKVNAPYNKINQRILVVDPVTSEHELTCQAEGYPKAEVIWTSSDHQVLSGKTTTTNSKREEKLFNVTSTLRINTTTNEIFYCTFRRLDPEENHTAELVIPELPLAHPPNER

B1: mouse PD-1 A132L mutant (soluble, monomeric) (domain or fragment)
chain: SLTFYPAWLTVSEGANATFTCSLSNWSEDLMLNWNRLSPSNQTEKQAAFCNGLSQPVQDARFQIIQLPNRHDFHMNILDTRRNDSGIYLCGAISLHPKLKIEESPGAELVVTERILE
notes: the same molecule is used for the SPR analyte and for the crystallised complexes (PDB 3SBW, 3RNK, 3BP6); also called mA132L; mouse analog of A132L
Kd [1]: 480 nM
Kd [2]: 1180 nM
Kd [3]: 2780 nM
Kd [4]: 470 nM
